The text below walks through data of paper PMC5074521, “Dom34 Links Translation to Protein O-mannosylation”.

For one data set, the target named is Dom34 N317A (Candida albicans, UniProt A0A1D8PSD0 1-393, N317A). As to the kind of experiment: EMSA; 400 nM protein, 20 nM RNA; as wild type; UTR/6S EMSA: 10 mM Tris-HCl pH 8.0, 100 mM NaCl, 30 C 10 min, then heparin 50 ng/ul 10 min, native 5% PAGE (legend 6%); oligo EMSA: LightShift RNA EMSA kit, room temperature 20 min; footprint: RNase 1 min at 37 C. To be noted: protein: recombinant; tags: C-terminal His6; label: 3'-biotin; single strand. A general note: A gel shift assay detects complexes by their altered migration in electrophoresis.

Data set [1] concerns the target T1, Dom34 E21A (Candida albicans, UniProt A0A1D8PSD0 1-393, E21A). As to the kind of experiment: EMSA; 400 nM protein, 20 nM RNA; enhanced vs wild type; UTR/6S EMSA: 10 mM Tris-HCl pH 8.0, 100 mM NaCl, 30 C 10 min, then heparin 50 ng/ul 10 min, native 5% PAGE (legend 6%); oligo EMSA: LightShift RNA EMSA kit, room temperature 20 min; footprint: RNase 1 min at 37 C. The note with it: protein: recombinant; tags: C-terminal His6; label: 3'-biotin; single strand.

Data set [2] concerns the target T2, Dom34 (Candida albicans, UniProt A0A1D8PSD0 1-393). As to the kind of experiment: EMSA; 400 nM protein, 20 nM RNA; complex I, plus II with 0.05% lauryl sarcosinate; UTR/6S EMSA: 10 mM Tris-HCl pH 8.0, 100 mM NaCl, 30 C 10 min, then heparin 50 ng/ul 10 min, native 5% PAGE (legend 6%); oligo EMSA: LightShift RNA EMSA kit, room temperature 20 min; footprint: RNase 1 min at 37 C. The note with it: protein: recombinant; tags: C-terminal His6; label: 3'-biotin; single strand.

For data set [3], the target named is T1, Dom34 E21A. Kind of data set: EMSA; heparin challenge 50 ng/ul; apparent KD; UTR/6S EMSA: 10 mM Tris-HCl pH 8.0, 100 mM NaCl, 30 C 10 min, then heparin 50 ng/ul 10 min, native 5% PAGE (legend 6%); oligo EMSA: LightShift RNA EMSA kit, room temperature 20 min; footprint: RNase 1 min at 37 C. To be noted: protein: recombinant; tags: C-terminal His6; label: 3'-32P-pCp; single strand with predicted paired regions.

Data set [4] has as its target T2, Dom34. As to the kind of experiment: EMSA; heparin challenge; binding visible above 0.3 uM, no free RNA at 2.5 uM (bound or degraded); lower affinity than E21A; UTR/6S EMSA: 10 mM Tris-HCl pH 8.0, 100 mM NaCl, 30 C 10 min, then heparin 50 ng/ul 10 min, native 5% PAGE (legend 6%); oligo EMSA: LightShift RNA EMSA kit, room temperature 20 min; footprint: RNase 1 min at 37 C. The note with it: protein: recombinant; tags: C-terminal His6; label: 3'-32P-pCp; single strand with predicted paired regions.

Regarding ACAACAACAACAACAACCACCACAACCACAACUAUAAACAAU (ssRNA) [PMT1 5'-UTR RNA oligonucleotide], the binding result with Dom34 N317A, with Dom34 E21A [1] and in the data set with Dom34 [2] was “binds” in each case.

B1: PMT1 5'-UTR RNA (full) (structured_RNA)
RNA: GGCAAGAUUCUUUUUCAAGAUUUUUCAUUUUUACAACAACAACAACAACCACCACAACCACAACUAUAAACAAUUGAUAUAGCAUUAUCUUUUAAGAUUAUUGAAUAAAGGUCAAUUUAUAGCGCCCCCCCUCACUCCACCUCCUACCGUCUUUCUUUCACGCAACUAAAACAAAUUUUUAUAUUUUUAUUUUUAUUUUUAUUUUAGUUUCCCAUUCAAUAGAUC
Turning to B1, the Kd with Dom34 E21A [3] was approximately 100 nM. Moreover, the binding result in the data set with Dom34 [4] is reported as “binds”.
